Assay [1] addresses T1, Recombinant Human DLL4 (R&D Systems Cat#1506-D4/CF) (human, UniProt Q9NR61 27-524).
T1 construct: bought recombinant protein; also called rHuman DLL4; delta-like protein 4
Kind of assay: ELISA titration, 2-fold dilutions from 20 nM Fab. Background: ELISA stands for enzyme-linked immunosorbent assay.

Assay [2] has as its target T2, Recombinant Human DLL4 (delta-like protein 4) (human, UniProt Q9NR61 27-524).
T2 construct: also called rHuman DLL4
Kind of assay: ELISA, plate-coated DLL4, Fab 6.25 nM.

The target in assay [3] is T2, Recombinant Human DLL4 (delta-like …). In words: ELISA, plate-coated DLL4, Fab 3.125 nM.
The target is the same in assay [4]. In words: ELISA, plate-coated DLL4, Fab 100 nM.
For assay [5] the target is unchanged. Kind of assay: ELISA, plate-coated DLL4, Fab 50 nM.
For assay [6] the target is unchanged. Kind of assay: ELISA, plate-coated DLL4, Fab 12.5 nM.
Assay [7] shares this target. Kind of assay: ELISA, plate-coated DLL4, Fab 25 nM.
Assay [8] addresses T3, Recombinant Human DLL4 (delta-like protein 4) (human, UniProt Q9NR61 27-524).
T3 construct: Bought recombinant human DLL4 (R&D Systems Cat#1506-D4/CF), coated on the plate; also called rHuman DLL4; Delta-like 4
In words: ELISA, DLL4 coated plate, Fab in solution; average signal minus noise.

Assay [9] deals with T3, Recombinant Human DLL4 (delta-like …). Kind of assay: ECL (MSD) 96-well plate assay, recombinant human DLL4 coated, Fab in solution.
Assay [10] addresses T4, Recombinant Human DLL4 (delta-like protein 4) (human, UniProt Q9NR61 27-524).
T4 construct: Bought recombinant protein (R&D Systems Cat#1506-D4/CF) coated on the ELISA plate; also called rHuman DLL4; Delta-like 4
Kind of assay: ELISA, DLL4 coated on plate, Fab at 0.16 nM, absorbance at 450 nm.

Assay [11] deals with T4, Recombinant Human DLL4 (delta-like …). Kind of assay: ELISA, DLL4 coated on plate, Fab at 2.5 nM, absorbance at 450 nm.
For assay [12] the target is unchanged. Kind of assay: ELISA, DLL4 coated on plate, Fab at 0.31 nM, absorbance at 450 nm.
Assay [13] shares this target. In words: ELISA, DLL4 coated on plate, Fab at 10 nM, absorbance at 450 nm.
The target is the same in assay [14]. Kind of assay: ELISA, DLL4 coated on plate, Fab at 0.63 nM, absorbance at 450 nm.
Assay [15] shares this target. Kind of assay: ELISA, DLL4 coated on plate, Fab at 20 nM, absorbance at 450 nm.
The target is the same in assay [16]. In words: ELISA, DLL4 coated on plate, Fab at 1.3 nM, absorbance at 450 nm.
For assay [17] the target is unchanged. In words: ELISA, DLL4 coated on plate, Fab at 5 nM, absorbance at 450 nm.
For a further assay, the target named is T5, Recombinant Human DLL4 (human, UniProt Q9NR61 27-524).
T5 construct: also called delta-like protein 4; rHuman DLL4
In words: ECL (MSD) multispot binding assay, DLL4 spotted on plate, Fab in solution.

As a reminder, the Kd is the equilibrium constant for the complex coming apart.

Positions count from the first letter of the chain named. Names and notes keep the numbering of the source.

B1: Fab VH1-46_IGHD6-6*01_IGHJ1*01 S102A/S103P/S104F/H111F I51E/N52L/S54T/G56H & L6_IGKJ1*01 (Fab, V domains shown)
VH: QVQLVQSGAEVKKPGASVKVSCKASGYTFTSYYMHWVRQAPGQGLEWMGIELPTGHSTSYAQKFQGRVTMTRDTSTSTVYMELSSLRSEDTAVYYCAREEYAPFSAEYFQFWGQGTLVTVSS
VL: not shown
notes: Fab; also called APFF ELTH
In the case of B1, the Kd in [1] is 1 to 10 nM.

B2: Fab VH1-46_IGHD6-6*01_IGHJ1*01 S102A/S103P/S104F/H111F (APFF) & L6_IGKJ1*01 S28N/S30D/S31H (NDH) (Fab, V domains shown)
VH: B1 VH with E51I, L52N, T54S, H56G
VL: EIVLTQSPATLSLSPGERATLSCRASQNVDHYLAWYQQKPGQAPRLLIYDASNRATGIPARFSGSGSGTDFTLTISSLEPEDFAVYYCQQRSNWPPWTFGQGTKVEIKR
notes: Fab made in E. coli: VH in plasmid A (CH1, His6 and Flag tags), VL in plasmid C (kappa CL); also called H:APFF & L:NDH; APFF / NDH
Regarding B2, the “ELISA signal at 6.25 nM Fab” value in assay [2] stood at 0.125. Also, the “ELISA signal at 3.125 nM Fab” value in [3] was 0.096. Further, in assay [4], the “ELISA signal at 100 nM Fab” value was found to be 0.686. Further, in assay [5], the “ELISA signal at 50 nM Fab” value worked out at 0.507. Also, the “ELISA signal at 12.5 nM Fab” value in [6] came to 0.192. Moreover, the “ELISA signal at 25 nM Fab” value in assay [7] turned out to be 0.31.

B3: Fab VH1-46_IGHD6-6*01_IGHJ1*01 S102A/S103P/S104F/H111F (H:APFF) & L6_IGKJ1*01 S28N/S30D/S31H (L:NDH) (Fab, V domains shown)
VH: B1 VH with E51I, L52N, T54S, H56G
VL: B2 VL
notes: Parent template of this NNK series; Fab made in E. coli: heavy chain from Plasmid A (CH1, His6 and Flag tags), kappa light chain from Plasmid C (kappa CL); also called H:APFF & L:NDH
With B3, the “ELISA (Avgerage signal-noise)” value in assay [8] is 0.214. For the same molecule, in assay [9], the “ECL signal” value was 17200.

B4: Fab VH1-46_IGHD6-6*01_IGHJ1*01 S102A/S103P/S104F/H111F (H:APFF) & L6_IGKJ1*01 S28N/S30D/S31H N53A (Fab, V domains shown)
VH: B1 VH with E51I, L52N, T54S, H56G
VL: B2 VL with N53A
notes: Fab made in E. coli: heavy chain from Plasmid A (CH1, His6 and Flag tags), kappa light chain from Plasmid C (kappa CL); also called H:APFF & L:NDH N53A
On to B4, for which, in [8], the “ELISA (Avgerage signal-noise)” value was found to be 0.151. Moreover, the “ECL signal” value in assay [9] was determined as 14200.

B5: Fab VH1-46_IGHD6-6*01_IGHJ1*01 S102A/S103P/S104F/H111F/I51T/N52L/P53A/S54T/G56H (APFF TLATH) & L6_IGKJ1*01 (Fab, V domains shown)
VH: B1 VH with E51T, P53A
VL: not shown
notes: Tested as a Fab made in E. coli: VH in Plasmid A (CH1, His6 and Flag tags), kappa VL in Plasmid C (kappa CL)
As for B5, the ELISA signal in assay [10] was determined as 0.875; in assay [11] it was 0.592; in assay [12], 1.11; in [13] it was 0.875; in assay [14], 0.227; in [15], 1.11. Also, the ELISA signal in [16] came to 0.078; in assay [17], 1.27.

B6: Fab VH1-46_IGHD6-6*01_IGHJ1*01 S102A/S103P/S104F/H111F/I51V/N52L/S54T/G56H (APFF VLTH) & L6_IGKJ1*01 (Fab, V domains shown)
VH: B1 VH with E51V
VL: not shown
notes: Tested as a Fab made in E. coli: VH in Plasmid A (CH1, His6 and Flag tags), kappa VL in Plasmid C (kappa CL); also called APPF VLTH
Regarding B6, the ELISA signal was found to be 1.85 in [10]; 1.66 in assay [11]; 2.05 in assay [12]; 1.85 in assay [13]; 0.785 in assay [14]; 2.05 in assay [15]. Moreover, the ELISA signal stood at 0.252 in assay [16] and 2.2 in [17].

B7: Fab VH1-46_IGHD6-6*01_IGHJ1*01 S102A/S103P/S104F/H111F (APFF) & L6_IGKJ1*01 W94S (Fab, V domains shown)
VH: B1 VH with E51I, L52N, T54S, H56G
VL: B2 VL with N28S, D30S, H31S, W94S
notes: Fab from E. coli; VH in Plasmid A (CH1, His6 and Flag tags), VL in Plasmid C (kappa CL); also called APFF & W94S
For the molecule B7, the “ECL signal” value with Recombinant Human DLL4 turned out to be 109000.

B8: Fab VH1-46_IGHD6-6*01_IGHJ1*01 S102A/S103P/S104F/H111F I51T/N52L/P53A/S54T/G56H & L6_IGKJ1*01 (Fab, V domains shown)
VH: B1 VH with E51T, P53A
VL: not shown
notes: Fab; also called APFF TLATH
Turning to B8, in [1], the Kd was greater than 100 nM.

B9: Fab VH1-46_IGHD6-6*01_IGHJ1*01 S102A/S103P/S104F/H111F (H:APFF) & L6_IGKJ1*01 S28N/S30D/S31H A55C (Fab, V domains shown)
VH: B1 VH with E51I, L52N, T54S, H56G
VL: B2 VL with A55C
notes: Fab made in E. coli: heavy chain from Plasmid A (CH1, His6 and Flag tags), kappa light chain from Plasmid C (kappa CL); also called H:APFF & L:NDH A55C
Turning to B9, the “ELISA (Avgerage signal-noise)” value in assay [8] was 0.146. For the same molecule, the “ECL signal” value in assay [9] turned out to be 8230.

B10: Fab VH1-46_IGHD6-6*01_IGHJ1*01 S102A/S103P/S104F/H111F (H:APFF) & L6_IGKJ1*01 S28N/S30D/S31H N53P (Fab, V domains shown)
VH: B1 VH with E51I, L52N, T54S, H56G
VL: B2 VL with N53P
notes: Fab made in E. coli: heavy chain from Plasmid A (CH1, His6 and Flag tags), kappa light chain from Plasmid C (kappa CL); also called H:APFF & L:NDH N53P
As to B10, in assay [8], the “ELISA (Avgerage signal-noise)” value is 0.12. The “ECL signal” value in assay [9] is 18100.

B11: Fab VH1-46_IGHD6-6*01_IGHJ1*01 S102A/S103P/S104F/H111F (H:APFF) & L6_IGKJ1*01 S28N/S30D/S31H A55S (Fab, V domains shown)
VH: B1 VH with E51I, L52N, T54S, H56G
VL: B2 VL with A55S
notes: Fab made in E. coli: heavy chain from Plasmid A (CH1, His6 and Flag tags), kappa light chain from Plasmid C (kappa CL); also called H:APFF & L:NDH A55S
On to B11, for which the “ELISA (Avgerage signal-noise)” value in [8] was 0.383. The “ECL signal” value in assay [9] amounted to 20000.

B12: Fab VH1-46_IGHD6-6*01_IGHJ1*01 S102A/S103P/S104F/H111F I51V/N52L/S54T/G56H & L6_IGKJ1*01 (Fab, V domains shown)
VH: B1 VH with E51V
VL: not shown
notes: Fab; also called APFF VLTH; APPF VLTH
As to B12, the Kd in [1] was in the range of 1 to 10 nM.

These data come from patent publication US20120316071A1 (published 2012).
